These results are taken from paper PMC11005723, “Development of Complementary Photo‐arginine/lysine to Promote Discovery of Arg/Lys hPTMs Interactomes” (Advanced Science, 2024).

The target in the assay is His‐DPF2PHD (residues 270–391) (UniProt Q92785). In words: ITC; 25 °C, MicroCal PEAQ-ITC; protein in the cell titrated with 19 injections of peptide. For orientation: Isothermal titration calorimetry measures the heat released or taken up as one component is titrated into another.
Sequence of His‐DPF2PHD (residues 270–391) (Q92785 270-391): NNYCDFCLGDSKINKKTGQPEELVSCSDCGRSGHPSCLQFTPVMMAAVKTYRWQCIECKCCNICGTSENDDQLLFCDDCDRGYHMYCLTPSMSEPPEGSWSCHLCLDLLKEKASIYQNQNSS

What is called Kd is the constant that tells how readily two partners part at equilibrium. Turning to “native H3R2 peptide (H3_(1‐15) without diazirine and biotin)”, the Kd came to 3.5 µM.
